From paper PMC9712074 (Cell Reports, 2022)

Tests used:
[1] = molecular target: SARS-CoV-2 (WT) Spike RBD Protein (His Tag) (SARS-CoV-2 ancestral (Wuhan-Hu-1), UniProt P0DTC2)
[2] = molecular target: SARS-CoV-2 Omicron BA.1 RBD (SARS-CoV-2 Omicron BA.1, strain)

Row | Binder | binding result [1] | binding result [2]
1 | BD55-5264 (antibody, V domains shown) VH: QVQLVQSGAEVKKPGASVKVSCKVSGYTLTKFSIHWVRQGHGKGLEWMGGFDIGEGGTIYAQKFQGRVTMTEDTSTDTSYMELSSLRSEDTAMYYCATDGEYSSGWAGVKLWGQGTLVTVSS VL: DIQMTQSPSTLSASVGDRVTITCRASQSISSWLAWYQQKPGKAPKLLIYKASSLESGVPSRFSGSGSGTEFTLTISSLQPDDFATYYCQQCDSYPWTFGQGTKVEIK | binds | –
2 | BD55-5248 (antibody, V domains shown) VH: QVQLVESGGGVVQPGRSLRLSCAASGFTFSSYDMYWVRQAPGKGLEWVAVISYDGSSNFYADSVKGRFTISRDNSRNTLSLQMNSLRAEDTAVYFCARERREQLTPVFDHWGQGTLVTVSS VL: DIQMTQSPSSLSASVGDRVTITCRASQSISSYLNWYQQRPGKAPKLLIYSASTLESGVPSRFSGSGSGTDFTLTINSLQPEDFATYYCQQSYSTLALTFGGGTKVEIK | binds | –
3 | BD55-5245 (antibody, V domains shown) VH: QVQLVQSGAEVKKPGSSVKVSCKASGGSLSSDGINWVRQAPGQGLEWLGRIIPIPGIADNAQKFQGRVTITADKSTSTAYMELSSLRSEDTAVYYCARAPPRGYSGYDLLGNDAFDIWGQGTMVTVSS VL: QSVLTQPPSVSGAPGQRVTISCTGSSSNIGAGYDVHWYQQLPGTAPKLLLYGNTNRPSGVPDRFTGSKSGTSASLAITGLQAEDEADYYCQSYDTSLSGSYVFGTGTKVAVL | binds | –
4 | BD55-5256 (antibody, V domains shown) VH: QVQLVQSGTEVKKPGSSVKVSCKASGGPFSGYVINWVRQAPGQGLEWMGGIIPVFETVKYAQKFQGRVTITAGESASTAYMELNSLRSEDTAVYYCAKSKYHSGYDVLTGRADFSLPFDYWGQGTLVTVSS VL: DIQMTQSPSSLSASVGDRVIITCQASQDITNSLSWYQQKPGKAPKLLIYGAFNLETGVPSRFSGSGSGTDFTFAISSLQPEDIATYFCQQYADLPYTFGQGTKLDIK | binds | –
5 | BD55-5265 (antibody, V domains shown) VH: EVQLVQSGAEVKKPGESLKISCKGAGYIFTHYWIAWVRQMPGKGLEWMGIVHPGDSDTRYSPSFQAQVTISADKSINTAYLQWSSLKASDTAIYFCARHGVHSGYSGYDRWDGHYYGMDVWGQGTTVTVSA VL: SYVLTQPPSVSVAPGKTARITCGGNNIGSKSVHWYQQKPGQAPVLVVYDGSERPSGIPERFSGSNSENTATLTISRVEAGDEADYYCQVWNDNSDSLVFGTGTEVTVL | binds | –
6 | BD55-5268 (antibody, V domains shown) VH: QVQLQQRGAGLLRPSETLSLTCDVSGGSFSGYYWNWVRQPPGKGLEWIGDIDLAGDNYNPSLKSRVTMSIDASKNQFSLRLSSVTAADTAVYFCVRAPNLGWFGPKQGAFDLWGQGTVVIVSS VL: not shown | binds | –
7 | BD55-5276 (antibody, V domains shown) VH: EVHLEESGGGLVHPGRSLRLSCAASGFTLDEYAMHWVRRAPGKGLEWVSGISWNSGARGYADSVKGRFTISRDNAKNSLYLQMNSLRAEDTAFYYCAKDNSHGSGTAWDWLDSWGQGTLVTVSS VL: NFMLTQPHSVSESPGKTVTISCTRSSGTITNNYVQWYRQRPGSSPTTVIFEDNQRPSGVPDRFSGSIDSSSNSASLTISGLKTEDEADYYCQSHDSSNWVFGGGTKLTVL | binds | –
8 | BD55-5267 (antibody, V domains shown) VH: QVQLQESGPGLVKPSGTLSLTCAVSGGSISSSNWWSWVRQPPGKGLEWIGEIYHSGSTNYNPSLKSRVTISVDKSKNKFSLKLSSVTAADTAVYFCARAGWIESGYDAFVGYFDYWGQGTLVTVSS VL: DIQMTQSPSSLSASVGDRVTITCRASQGISSSLAWYQQKPGKAPDLLLYAASGLESGVPSRFSGSGSGTDFTLSISSLQPEDFATYYCQQYYSPPRTFGQGTKLEIK | binds | –
9 | BD55-5251 (antibody, V domains shown) VH: QITLKESGPALVKPTQTLTLTCTFSGFSLSSNGVGVGWIRQSPGKALEWLALIYWDDDKRYTPSLKKRLTVTKDTSKNQVVLTMTNMDPVDTATYYCAHMARPRGLFINPSWFDPWGQGTLVTVSS VL: QSVLTQPPSASGTPGQRVTISCSGSSSNIGSNTIDWYQQLPGTAPRLLIYGHDLRPSGVPDRFSGSQSGTSASLVISGLQSEDEADYYCAAWDDSLNGPVFGGGTKLTVL | binds | –
10 | BD55-5242 (antibody, V domains shown) VH: QVQLVQSGAEVKKPGASVKVSCKAFGYTFNSNYIHWVRQAPGQGLEWMGVIDPSGGATSYAQKFQGRVTMTRDTSTNTVYMELSSLRSEDTAVYYCARDLGDDVSRGYSGYDFLDLYGMDVWGQGTTVTVS VL: not shown | binds | –
11 | BD55-3372 (antibody, V domains shown) VH: EVHLVESGGGLVKPGGSLRLSCAASGFTFSNYAMNWVRQAPGKGLQWVSSITGSSSFIFYADSVKGRFTIVRDNAQNSLYLQMNSLRDEDTAVYYCARERDDYDTRLDWGQGTLVTVSS VL: QPMLTQPPSVSGAPGQTVTISCVGSSSNIGAGYEVHWYQQLPGTAPKRLLSGNSDRPSGVPDRFSGSKSGTSASLAITGLQADDEADYYCQSYDSSLSLSAVVFGGGTKLTVL | – | binds
12 | BD55-5263 (antibody, V domains shown) VH: QVQLVQSGAEVKKPGASVKVSCKGSGYIFTNYGVSWVRQAPGQGLECMGWISAYNGNTDYTQKFQGRVTMTTDTSTSTAYMELRSLTSDDTAVYYCARAAHNWGPEDAFDIWGQGSMVTVSS VL: not shown | binds | –
13 | BD55-3152 (antibody, V domains shown) VH: QVQLVQSGAEVKKPGASVIVSCKASGYRFISHYIHWVRQAPGQGLEWMGKIDPSGRGTTYAQKLQGRVSVTRDTSTSSVYMALSGLRSDDTAVYYCARDRFPLSDPYVWGSPLGGLDVWGQGTTVIVSS VL: SYDLTQPPSVSVSPGQTARITCSGDALPSQYVYWYQQRPGQAPVLVMYKDSERPPGIPERFSGSTSGTTATLTITGVQAEDEADYYCQSADASTTYHVFGGGTKVTVV | – | binds
14 | BD55-5250 (antibody, V domains shown) VH: QVQLVQSGAEVKKPGASVKVSCKASGYTFTSNAIHWVRQAPGQRLEWMGWIMADNGYTKYSENFQGRVTITRDTSASTVYMEVSSLRSGDTAVYYCAREGSMWYSTYFDHWGQGTLVTVSS VL: DIQMTQSPSSLSASVGDRVTITCRASQSISSYLTWYQQKSGTAPKLLIYAASSLQSGVPSRFSGSGSGTDFTLTISSLQPEDFATYYCQQSYTDPFTFGPGTKVDFK | binds | –
15 | BD55-5271 (antibody, V domains shown) VH: QVTLKESGPVLVKPTETLTLTCTVSGISLNNARMAVSWIRQPPGKALEWLAHILSNDEKSFSKSLTSRLTISKDSSKNQVVLRLTNMDPVDTGTYYCARIVYDSSSYYYSGDNWFDPWGQGTQVTVSS VL: SYELTQPPSVSVSPGQTARITCTGDAFPNQYAYWYQQKSGQAPVLVIYKDSERPSGIPERFSGSSAGTTVTLTISGVQAEDEADYYCQSADSRGVVFGGGTKVTVL | binds | –
16 | BD55-5259 (antibody, V domains shown) VH: QITLKESGPTLVKPTQTLTLTCTFSGFSLTMPEVGVAWVRQPPGKALEWLALIYGDDNKRYSPSLESRLTITKDSSKNQVVLTMTNLDSVDTATYYCARRKFLWDSDPVAFDYWGLGTLVIVSS VL: DIVMTQTPLSLPVTLGQPASISCRSSQSLVHIDGNIYLSWLQQRPGQPPRLLIYKISNRFSGVPDRFSGSGSGTDFTLKISRVEAEDVGVYYCMQATQFPHEMYTFGQGTKLEIR | binds | –
